Columns and labels:
[1] = tested on: CC(=O)N[C@H]1[C@@H](OP(=O)(O)OP(=O)(O)OC[C@H]2O[C@@H](n3ccc(=O)[nH]c3=O)[C@H](O)[C@@H]2O)O[C@H](CO)[C@@H](O)[C@@H]1O[C@H](C)C(=O)N[C@@H](C)C(=O)N[C@H](CCC(=O)N[C@@H](CCC[C@@H](N)C(=O)O)C(=O)O)C(=O)O; assay: purified protein; settings: pH 8.5; 37.0 °C
[2] = tested on: C[C@@H](N)C(=O)N[C@H](C)C(=O)O; assay: purified protein; settings: pH 8.5; 37.0 °C

MurF (Mycobacterium tuberculosis H37Rv)
Km [1]: 64.5 ± 0.2 µM | kcat/Km [1]: 21700 ± 200 M⁻¹ s⁻¹ | Km [2]: 78.1 ± 0.2 µM | kcat/Km [2]: 18100 ± 300 M⁻¹ s⁻¹

From article PMC3605390, “Characterisation of ATP-Dependent Mur Ligases Involved in the Biogenesis of Cell Wall Peptidoglycan in Mycobacterium tuberculosis” (PLoS ONE, 2013)
